{"source": "paper PMC9400090", "about": "“Cyclin-dependent kinase 1 depolymerizes nuclear lamin filaments by disrupting the head-to-tail interaction of the lamin central rod domain” (The Journal of Biological Chemistry, 2022)", "molecules": {"B1": {"name": "GST-fused lamin 250 to 400 fragment (human lamin A/C residues 250-400) (domain or fragment, UniProt P02545 250-400, looked up)", "chain": "AQHEDQVEQYKKELEKTYSAKLDNARQSAERNSNLVGAAHEELQQSRIRIDSLSAQLSQLQKQLAAKEAKLRDLEDSLARERDTSRRLLAEKEREMAEMRARMQQQLDEYQELLDIKLALDMEIHAYRKLLEGEEERLRLSPSPTSQRSRG", "notes": "human lamin A/C, residues 250-400: most of coil 2 (242-385) and a C-terminal flanking region (386-400); also called GST-lamin coil 250-400; lamin C-terminal 250 to 400 fragment; source: E. coli, purified (glutathione-agarose, HiTrap Q, desalting); not shown: GST, N-terminal, kept"}}, "key": {"lamin A/C 250-400": {"molecular_target": "lamin A/C 250-400 (UniProt P02545)", "assay": "GST pull-down, SDS-PAGE", "settings": "reference: wild type, CDK1 treated"}, "[1]": {"molecular_target": "B1", "assay": "pull-down; GST-fused coil 2C fragment (5 μM) on GSH-agarose resin with lamin N-terminal fragments (20 μM); 20 mM Tris-HCl pH 7.5, 50 mM NaCl, 1 h at room temperature; eluted with 20 mM GSH; SDS-PAGE or Phos-tag SDS-PAGE", "settings": "both partners purified"}, "[2]": {"molecular_target": "T1, L59R mutant lamin 1 to 300 fragment (human, UniProt P02545 1-300, L59R)", "T1 construct": "lamin A/C, residues 1-300, with the genetic (laminopathy) mutation L59R; also called L59R-harboring lamin 1 to 300; L59R lamin 1 to 300", "T1 sequence (looked up)": "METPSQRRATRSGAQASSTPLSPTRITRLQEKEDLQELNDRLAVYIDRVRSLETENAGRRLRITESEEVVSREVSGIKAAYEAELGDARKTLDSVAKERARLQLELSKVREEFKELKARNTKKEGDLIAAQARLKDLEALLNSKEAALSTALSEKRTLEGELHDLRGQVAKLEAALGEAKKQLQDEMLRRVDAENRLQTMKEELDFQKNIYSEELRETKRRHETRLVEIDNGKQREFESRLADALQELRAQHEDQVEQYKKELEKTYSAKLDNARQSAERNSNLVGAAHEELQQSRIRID", "assay": "pull-down; GST-fused coil 2C fragment (5 μM) on GSH-agarose resin with lamin N-terminal fragments (20 μM); 20 mM Tris-HCl pH 7.5, 50 mM NaCl, 1 h at room temperature; eluted with 20 mM GSH; SDS-PAGE or Phos-tag SDS-PAGE", "settings": "both partners purified"}, "[3]": {"molecular_target": "T2, WT lamin 1 to 300 fragment (lamin A/C residues 1-300) (human, UniProt P02545 1-300)", "T2 construct": "lamin A/C, residues 1-300 (head region 1-27 and part of the central rod domain); The abstract says purified proteins were used; also called lamin 1-300; lamin N-terminal 1 to 300 fragment", "T2 sequence (looked up)": "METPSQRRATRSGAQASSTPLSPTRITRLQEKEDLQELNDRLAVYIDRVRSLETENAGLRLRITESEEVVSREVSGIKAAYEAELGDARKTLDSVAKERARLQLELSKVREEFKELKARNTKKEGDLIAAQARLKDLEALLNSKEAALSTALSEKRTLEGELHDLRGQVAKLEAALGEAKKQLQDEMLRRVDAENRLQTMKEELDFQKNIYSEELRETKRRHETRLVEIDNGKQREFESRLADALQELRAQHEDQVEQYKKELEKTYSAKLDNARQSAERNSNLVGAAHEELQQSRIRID", "assay": "pull-down; GST-fused coil 2C fragment (5 μM) on GSH-agarose resin with lamin N-terminal fragments (20 μM); 20 mM Tris-HCl pH 7.5, 50 mM NaCl, 1 h at room temperature; eluted with 20 mM GSH; SDS-PAGE or Phos-tag SDS-PAGE", "settings": "both partners purified"}, "[4]": {"molecular_target": "the molecule itself", "assay": "cross-linking; disulfide bond between Cys146 of two coiled-coil dimers as read-out of the A11 tetramer; Phos-tag SDS-PAGE with nonreducing loading dye"}}}
{"molecule": "lamin A/C 1-125 (from UniProt P02545) T19A, CDK1 treated", "values": [{"measurement": "binding against the reference", "setting": "lamin A/C 250-400; sites T19", "value": "stronger"}]}
{"molecule": "lamin A/C 1-125 (from UniProt P02545) S22A, CDK1 treated", "values": [{"measurement": "binding against the reference", "setting": "lamin A/C 250-400; sites S22", "value": "stronger"}]}
{"molecule": "WT lamin 1 to 125 fragment (human lamin A/C, residues 1-125) (domain or fragment, UniProt P02545 1-125, looked up) METPSQRRATRSGAQASSTPLSPTRITRLQEKEDLQELNDRLAVYIDRVRSLETENAGLRLRITESEEVVSREVSGIKAAYEAELGDARKTLDSVAKERARLQLELSKVREEFKELKARNTKKEG", "values": [{"measurement": "binding result", "setting": "[1]", "value": "binds"}]}
{"molecule": "lamin 1 to 125 fragment S22A (domain or fragment, human, UniProt P02545 1-125, looked up) METPSQRRATRSGAQASSTPLAPTRITRLQEKEDLQELNDRLAVYIDRVRSLETENAGLRLRITESEEVVSREVSGIKAAYEAELGDARKTLDSVAKERARLQLELSKVREEFKELKARNTKKEG", "values": [{"measurement": "binding result", "setting": "[1]", "value": "binds"}]}
{"molecule": "lamin 1 to 125 fragment T19A (domain or fragment, human, UniProt P02545 1-125, looked up) METPSQRRATRSGAQASSAPLSPTRITRLQEKEDLQELNDRLAVYIDRVRSLETENAGLRLRITESEEVVSREVSGIKAAYEAELGDARKTLDSVAKERARLQLELSKVREEFKELKARNTKKEG", "values": [{"measurement": "binding result", "setting": "[1]", "value": "binds"}]}
{"molecule": "lamin 1 to 125 fragment T19A/S22A (domain or fragment, human, UniProt P02545 1-125, looked up, also called double mutant) METPSQRRATRSGAQASSAPLAPTRITRLQEKEDLQELNDRLAVYIDRVRSLETENAGLRLRITESEEVVSREVSGIKAAYEAELGDARKTLDSVAKERARLQLELSKVREEFKELKARNTKKEG", "values": [{"measurement": "binding result", "setting": "[1]", "value": "binds"}]}
{"molecule": "lamin 1 to 125 fragment T19D/S22D (domain or fragment, human, UniProt P02545 1-125, looked up, also called phosphorylation-mimicking dual mutant) METPSQRRATRSGAQASSDPLDPTRITRLQEKEDLQELNDRLAVYIDRVRSLETENAGLRLRITESEEVVSREVSGIKAAYEAELGDARKTLDSVAKERARLQLELSKVREEFKELKARNTKKEG", "values": [{"measurement": "binding result", "setting": "[1]", "value": "binds"}]}
{"molecule": "B1", "values": [{"measurement": "binding result", "setting": "[2]", "value": "binds"}, {"measurement": "binding result", "setting": "[3]", "value": "binds"}]}
{"molecule": "A146C mutant lamin 1 to 300 fragment (domain or fragment, human, UniProt P02545 1-300, looked up, lamin A/C, residues 1-300; Cys146 forms a disulfide between two coiled-coil dimers within the A11 tetramer; also called lamin 1 to 300 (A146C)) METPSQRRATRSGAQASSTPLSPTRITRLQEKEDLQELNDRLAVYIDRVRSLETENAGLRLRITESEEVVSREVSGIKAAYEAELGDARKTLDSVAKERARLQLELSKVREEFKELKARNTKKEGDLIAAQARLKDLEALLNSKECALSTALSEKRTLEGELHDLRGQVAKLEAALGEAKKQLQDEMLRRVDAENRLQTMKEELDFQKNIYSEELRETKRRHETRLVEIDNGKQREFESRLADALQELRAQHEDQVEQYKKELEKTYSAKLDNARQSAERNSNLVGAAHEELQQSRIRID", "values": [{"measurement": "binding result", "setting": "[4]", "value": "binds"}]}
